Test results reported in publication PMC6715699.

T1: UPF1 (UniProt Q92900 1-352+364-1129, internal_change)
T1 sequence: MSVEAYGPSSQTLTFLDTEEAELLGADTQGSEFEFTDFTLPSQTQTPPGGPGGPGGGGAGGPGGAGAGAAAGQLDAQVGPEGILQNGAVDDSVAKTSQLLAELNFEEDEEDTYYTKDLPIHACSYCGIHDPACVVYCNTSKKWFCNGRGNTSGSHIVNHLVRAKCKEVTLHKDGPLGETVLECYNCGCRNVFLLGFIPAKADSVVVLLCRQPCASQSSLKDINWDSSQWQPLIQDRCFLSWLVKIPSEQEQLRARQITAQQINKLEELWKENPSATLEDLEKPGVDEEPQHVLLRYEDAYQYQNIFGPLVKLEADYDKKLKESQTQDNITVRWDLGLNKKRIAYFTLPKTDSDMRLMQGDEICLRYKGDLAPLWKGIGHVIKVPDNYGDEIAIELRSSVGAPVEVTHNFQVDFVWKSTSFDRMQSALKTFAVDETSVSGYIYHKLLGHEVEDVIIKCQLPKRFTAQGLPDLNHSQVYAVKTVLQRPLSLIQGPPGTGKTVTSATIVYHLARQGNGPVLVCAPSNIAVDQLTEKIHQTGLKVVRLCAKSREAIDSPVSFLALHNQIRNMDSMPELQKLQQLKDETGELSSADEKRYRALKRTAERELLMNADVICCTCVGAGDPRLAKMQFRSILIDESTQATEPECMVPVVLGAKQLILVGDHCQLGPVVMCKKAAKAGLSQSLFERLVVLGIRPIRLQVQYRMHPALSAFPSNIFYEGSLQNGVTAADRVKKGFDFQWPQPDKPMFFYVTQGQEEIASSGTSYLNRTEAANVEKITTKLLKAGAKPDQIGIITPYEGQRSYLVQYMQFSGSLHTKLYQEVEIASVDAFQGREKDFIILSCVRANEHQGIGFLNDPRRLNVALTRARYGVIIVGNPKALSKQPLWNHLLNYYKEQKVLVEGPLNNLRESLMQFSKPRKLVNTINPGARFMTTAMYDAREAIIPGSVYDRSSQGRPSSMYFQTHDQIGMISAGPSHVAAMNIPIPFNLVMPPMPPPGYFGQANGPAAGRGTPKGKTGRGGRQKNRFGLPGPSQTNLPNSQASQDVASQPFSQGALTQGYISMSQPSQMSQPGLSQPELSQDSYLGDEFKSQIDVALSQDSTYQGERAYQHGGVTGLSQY


Experiments:
CSL (RBP-Jkappa) [1] = target: T2, CSL (RBP-Jkappa) (UniProt Q06330 1-500); experiment: MST; 200 nM labelled CSL; MST in standard MST buffer (composition and pH not given), premium-treated capillaries, Monolith NT.115; 20 min at room temperature stated for the protein mixes; settings: protein: commercial; tags: RED-NHS dye when labelled; blunt
T2 sequence (Q06330 whole entry): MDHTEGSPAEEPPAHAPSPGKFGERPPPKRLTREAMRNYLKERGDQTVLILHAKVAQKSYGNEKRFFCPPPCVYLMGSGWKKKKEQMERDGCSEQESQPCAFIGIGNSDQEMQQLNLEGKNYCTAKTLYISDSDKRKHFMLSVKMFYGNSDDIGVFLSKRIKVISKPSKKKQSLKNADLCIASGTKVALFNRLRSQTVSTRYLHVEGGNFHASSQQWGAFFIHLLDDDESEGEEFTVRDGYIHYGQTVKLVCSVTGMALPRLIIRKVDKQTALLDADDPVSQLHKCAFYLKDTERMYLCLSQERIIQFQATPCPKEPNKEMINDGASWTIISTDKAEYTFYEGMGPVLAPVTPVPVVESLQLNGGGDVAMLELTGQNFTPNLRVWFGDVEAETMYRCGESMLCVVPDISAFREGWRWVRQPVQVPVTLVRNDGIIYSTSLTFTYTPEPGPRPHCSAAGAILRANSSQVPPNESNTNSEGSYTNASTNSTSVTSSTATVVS

UPF1 = target: T1, UPF1; experiment: MST; 50 nM labelled DNA; no binding specificity; MST in standard MST buffer (composition and pH not given), premium-treated capillaries, Monolith NT.115; 20 min at room temperature stated for the protein mixes; settings: protein: commercial; label: 647-NHS; blunt
CSL (RBP-Jkappa) [2] = target: T2, CSL (RBP-Jkappa); experiment: MST; 50 nM labelled DNA; MST in standard MST buffer (composition and pH not given), premium-treated capillaries, Monolith NT.115; 20 min at room temperature stated for the protein mixes; settings: protein: commercial; tags: RED-NHS dye when labelled; label: 647-NHS; blunt
CSL (RBP-Jkappa) [3] = target: T2, CSL (RBP-Jkappa); experiment: MST; second independent experiment; 50 nM labelled DNA; MST in standard MST buffer (composition and pH not given), premium-treated capillaries, Monolith NT.115; 20 min at room temperature stated for the protein mixes; settings: protein: commercial; tags: RED-NHS dye when labelled; label: 647-NHS; blunt

Binder | Kd (CSL (RBP-Jkappa) [1]) [nM] | Kd (UPF1) [nM] | Kd (CSL (RBP-Jkappa) [2]) [nM] | Kd (CSL (RBP-Jkappa) [3]) [nM]
SCRAMBLED (dsDNA) DNA 1: GCTACTCATACCTAGAACG DNA 2: CGTTCTAGGTATGAGTAGC | 3380 ± 77.6 |  |  | 
TELO (TTAGGG)3 (dsDNA) DNA 1: TTAGGGTTAGGGTTAGGG DNA 2: CCCTAACCCTAACCCTAA |  | 3520 ± 46.8 | 235 ± 23.9 | 232 ± 15.4
CSL specific motif (dsDNA) DNA 1: GTTACTGTGGGAAAGAAAG DNA 2: CTTTCTTTCCCACAGTAAC | 121 ± 17.4 |  |  | 
